Literature values in paper PMC12298957.
pKd: −log10 of the molar value.

Molecular target: FGFR2 (Homo sapiens) (UniProt P21802)
Chain of UniProt P21802 (P21802 22-377): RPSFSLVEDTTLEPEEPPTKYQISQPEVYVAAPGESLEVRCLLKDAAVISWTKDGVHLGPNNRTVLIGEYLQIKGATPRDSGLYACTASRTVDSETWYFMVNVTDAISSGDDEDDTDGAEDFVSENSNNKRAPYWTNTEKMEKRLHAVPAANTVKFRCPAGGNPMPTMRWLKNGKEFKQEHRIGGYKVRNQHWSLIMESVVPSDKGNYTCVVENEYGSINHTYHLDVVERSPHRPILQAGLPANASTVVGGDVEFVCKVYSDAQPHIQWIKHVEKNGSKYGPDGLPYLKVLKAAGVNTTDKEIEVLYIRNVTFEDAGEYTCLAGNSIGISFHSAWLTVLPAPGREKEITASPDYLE

pKd: 5.85
Substance: WRARVPL peptide
